Consider 1 protein from patent US20120053320A1 (BOARD OF TRUSTEES OF MICHIGAN STATE UNIVERSITY, published 2012).

This series deals with the molecule itself. In words: SDS-PAGE, immunoblot and MALDI-TOF of purified and depolymerized pili (self-assembly). Background: In western blotting, separated proteins are transferred to a membrane and probed.

B1: PilA pilin subunit of Geobacter sulfurreducens (mature PilA, ca. 6.5-7 kDa band from octyl-glucoside-depolymerized pili) (other)
chain: FTLIELLIVVAIIGILAAIAIPQFSAYRVKAYNSAASSDLRNLKTALESAFADDQTYPPES
notes: Native protein from strain PCA, denatured on SDS-PAGE and blotted; also called nanowire pilin subunit; PilA band
For B1, the binding result is reported as “binds”.
